Data on 48 variants can be found in the Human Domainome abundance scans (Beltran et al. 2025).

± gives the uncertainty stated by the source.

Sequences and labels used below:
B1: E3 ubiquitin-protein ligase Midline-1, residues 172 to 214; numbered along this chain, O15344 (parent)
chain: GLMCLEHEDEKVNMYCVTDDQLICALCKLVGRHRDHQVAALSE
B2: Steroid hormone receptor ERR2, residues 100 to 176; numbered along this chain, O95718 (parent)
chain: KRLCLVCGDIASGYHYGVASCEACKAFFKRTIQGNIEYSCPATNECEITKRRRKSCQACRFMKCLKVGMLKEGVRLD

Variants of B1 are the subject of the first series. The series can be described thus: abundance fitness (aPCA) (normalised: wild type 0, dead -1); higher = more abundant; growth selection in yeast, the domain comes from the species named. Conditions: Homo sapiens.
In the case of GLMCLEHEDEKVNMYCVTDDQLICALCKLVGRHRDHQVAAISE [L41I], the abundance fitness was -0.082 ± 0.09.
On to GLMCLEHEDEKVNMYCVTDDQLICALCKLVGRHRDHQVAAASE [L41A], for which the abundance fitness was found to be 0.072 ± 0.052.
On to GLMCLEHEDEKVNMYCVTDDQLICALCKLVGRHRDHQVAALSA [E43A], for which the abundance fitness is -0.004 ± 0.064.
In the case of GLMCLEHEDEKVNMYCVTDDQLICALCKLVGRHRDHQVAALSS [E43S], the abundance fitness was 0.058 ± 0.1.
As for GLMCLEHEDEKVNMYCVTDDQLICALCKLVGRHRDHQVAALSD [E43D], the abundance fitness is -0.239 ± 0.2.
The same measure, in the same setting: the figure for GLMCLEHEDEKVNMYCVTDDQLICALCKLVGRHRDHQVAALSK [E43K] is 0.091 ± 0.22.
On the same count and under the same terms, the figure for GLMCLEHEDEKVNMYCVTDDQLICALCKLVGRHRDHQVAALSG [E43G] is -0.045 ± 0.078.
In the case of GLMCLEHEDEKVNMYCVTDDQLICALCKLVGRHRDHQVAALSR [E43R], the abundance fitness is -0.031 ± 0.058.
The same measure, in the same setting: then GLMCLEHEDEKVNMYCVTDDQLICALCKLVGRHRDHQVAALSQ [E43Q], with -0.317 ± 0.12; and GLMCLEHEDEKVNMYCVTDDQLICALCKLVGRHRDHQVAALSV [E43V], with -0.534 ± 0.16; and GLMCLEHEDEKVNMYCVTDDQLICALCKLVGRHRDHQVAALST [E43T], with -0.221 ± 0.35.
Turning to GLMCLEHEDEKVNMYCVTDDQLICALCKLVGRHRDHQVAALSP [E43P], the abundance fitness was -0.076 ± 0.1.
On to GLMCLEHEDEKVNMYCVTDDQLICALCKLVGRHRDHQVAALSH [E43H], for which the abundance fitness was -0.197 ± 0.1.
As for GLMCLEHEDEKVNMYCVTDDQLICALCKLVGRHRDHQVAALSW [E43W], the abundance fitness was -0.175 ± 0.15.
As to GLMCLEHEDEKVNMYCVTDDQLICALCKLVGRHRDHQVAALSL [E43L], the abundance fitness is -0.241 ± 0.12.

A further series covers variants of B2. The series is described as above. The conditions noted are these: Homo sapiens.
For the variant KRLCGVCGDIASGYHYGVASCEACKAFFKRTIQGNIEYSCPATNECEITKRRRKSCQACRFMKCLKVGMLKEGVRLD [L5G], the abundance fitness was -0.341 ± 0.052.
Regarding KRLCLVCGDIASGYHYGVASCEACKAFFKRTIQGNIEYSCPATNECEITKRRRKSCQACRFMKCLKVGMLKEGVRLP [D77P], the abundance fitness was found to be 0.171 ± 0.1.
With KRLCLVCGDIASGYHYGVASCEACKAFFKRTIQGNIEYSCHATNECEITKRRRKSCQACRFMKCLKVGMLKEGVRLD [P41H], the abundance fitness is -0.028 ± 0.087.
For the variant KRLCLVCGDIASGYHYGVASCEACKAFFKRTIQGNIEYSCPATNECEITKRRRKSCQACRFMKCLKRGMLKEGVRLD [V67R], the abundance fitness is -0.409 ± 0.056.
Turning to KRLCLVCGDIASGYHYGVASCEACKAFFKRTIQGNIEYSCPATNECEITKRRRYSCQACRFMKCLKVGMLKEGVRLD [K54Y], the abundance fitness turned out to be 0.091 ± 0.08.
For the variant KRLCLVCGDIASGYHYGVASCEACKAFFKRTIQGNIEYSCPATNECEITARRRKSCQACRFMKCLKVGMLKEGVRLD [K50A], the abundance fitness was 0.126 ± 0.059.
Take KRLCLVCGDIASGYHYGVASCEACKAFFKRTIQGNIEYSCPATNECEITKRRRKSCQCCRFMKCLKVGMLKEGVRLD [A58C]: the abundance fitness was -0.346 ± 0.078.
For the variant KRLCLVCGDIASGYHYGVASCEACKAFFKRTIQGNIEYSCPATNECEICKRRRKSCQACRFMKCLKVGMLKEGVRLD [T49C], the abundance fitness is -0.948 ± 0.31.
For ERLCLVCGDIASGYHYGVASCEACKAFFKRTIQGNIEYSCPATNECEITKRRRKSCQACRFMKCLKVGMLKEGVRLD [K1E], the abundance fitness was -0.128 ± 0.07.
KRLCLVCGDIASGYHYGVASCEACYAFFKRTIQGNIEYSCPATNECEITKRRRKSCQACRFMKCLKVGMLKEGVRLD [K25Y]: the abundance fitness is 0.273 ± 0.067.
For KRLCLVCGDIASGYHYGVASCEACKAFFKRTIQGNIEYSCPATNECEITKRRRKSCQACRFMNCLKVGMLKEGVRLD [K63N], the abundance fitness was -0.605 ± 0.15.
The same measure, in the same setting: then KRLCLVCGDIASGYHYGCASCEACKAFFKRTIQGNIEYSCPATNECEITKRRRKSCQACRFMKCLKVGMLKEGVRLD [V18C], with -0.169 ± 0.076.
Still for that read-out and setting: the figure for KRLCLVCGDIASGYHYGVASCEACKAFFKRTIQGNIEYSCPATNEKEITKRRRKSCQACRFMKCLKVGMLKEGVRLD [C46K] is -0.572 ± 0.14.
As to KRLCLVCGDIASGYHYGVASCEACKAFFKRTIQGNIEYSCPATNECEITKRRRKSCQACRFMKCLKVGMLKEGVILD [R75I], the abundance fitness was -0.051 ± 0.095.
On to KRLCLVCGDIASGYHYGVASCEACKAFFKRTIQGNIEYSCPATNECEITKRRRKSCQACRFMKCLLVGMLKEGVRLD [K66L], for which the abundance fitness is -0.436 ± 0.065.
For the variant KRLCLVCGDIASGYHYGVQSCEACKAFFKRTIQGNIEYSCPATNECEITKRRRKSCQACRFMKCLKVGMLKEGVRLD [A19Q], the abundance fitness is -0.113 ± 0.057.
The same measure, in the same setting: then KRLCLVCGDIASGYHYGVASCEACKAFFKRTIQGNIEYSYPATNECEITKRRRKSCQACRFMKCLKVGMLKEGVRLD [C40Y], with -0.247 ± 0.19.
On the same count and under the same terms, the figure for KRLCLVCGDIASGYHYGVASCEACKAFFKRTIQGNIEYSAPATNECEITKRRRKSCQACRFMKCLKVGMLKEGVRLD [C40A] is -0.91 ± 0.12; for KRLCLVCGDIASGYHYGVASCEACKAIFKRTIQGNIEYSCPATNECEITKRRRKSCQACRFMKCLKVGMLKEGVRLD [F27I] it is -0.434 ± 0.16; for KRLCLVCGDIASGYHYGVASCEAWKAFFKRTIQGNIEYSCPATNECEITKRRRKSCQACRFMKCLKVGMLKEGVRLD [C24W] it is -0.784 ± 0.075.
For the variant KRLCLVCGNIASGYHYGVASCEACKAFFKRTIQGNIEYSCPATNECEITKRRRKSCQACRFMKCLKVGMLKEGVRLD [D9N], the abundance fitness is -0.365 ± 0.14.
For the variant KRLCLVCLDIASGYHYGVASCEACKAFFKRTIQGNIEYSCPATNECEITKRRRKSCQACRFMKCLKVGMLKEGVRLD [G8L], the abundance fitness was -0.091 ± 0.046.
Consider KRLCLVCGDIASGYHYGVASCEACKAFFKRTAQGNIEYSCPATNECEITKRRRKSCQACRFMKCLKVGMLKEGVRLD [I32A], for which the abundance fitness was -0.21 ± 0.054.
Take KRLCLVCGDIASGYHYRVASCEACKAFFKRTIQGNIEYSCPATNECEITKRRRKSCQACRFMKCLKVGMLKEGVRLD [G17R]: the abundance fitness is -0.495 ± 0.055.
The same measure, in the same setting: then KRLCLVGGDIASGYHYGVASCEACKAFFKRTIQGNIEYSCPATNECEITKRRRKSCQACRFMKCLKVGMLKEGVRLD [C7G], with -0.96 ± 0.11.
Regarding KRLCLVCGDIASGYHYGVASCEACKAFFKRTIQGNIEYSCPATNECEITKRRRKSCQACRNMKCLKVGMLKEGVRLD [F61N], the abundance fitness is -0.541 ± 0.3.
For the variant KRLCLMCGDIASGYHYGVASCEACKAFFKRTIQGNIEYSCPATNECEITKRRRKSCQACRFMKCLKVGMLKEGVRLD [V6M], the abundance fitness was -1.01 ± 0.19.
Consider KRACLVCGDIASGYHYGVASCEACKAFFKRTIQGNIEYSCPATNECEITKRRRKSCQACRFMKCLKVGMLKEGVRLD [L3A], for which the abundance fitness was -0.047 ± 0.048.
For KRLCLVCGDIASGYHYGVASCEACKAFFKRTIQGNIEYSCPATNECEITKRRRKSCQACRFMKCLKVGMYKEGVRLD [L70Y], the abundance fitness is -0.646 ± 0.17.
On to KRLCLVCGDIASGYHYGVASCEACKAFFKRTIQGNIEYSCPATNECEITKRRRKSWQACRFMKCLKVGMLKEGVRLD [C56W], for which the abundance fitness is -0.722 ± 0.14.
Turning to KRLCLVCGDIASGYHYGVASCEACKAFFKRTIQGNIEYSCPATNECEITKRRRKSEQACRFMKCLKVGMLKEGVRLD [C56E], the abundance fitness was -0.627 ± 0.1.
Take KRLCLVCGDIASGYHYGVASCEACKAFFKRTIQGNIEYSCPATNECEITKRRRKSRQACRFMKCLKVGMLKEGVRLD [C56R]: the abundance fitness was -0.872 ± 0.097.
Regarding KRLCLVCGDIASGYHYGVASCEACKAFFKRTIQGNIEYSCPFTNECEITKRRRKSCQACRFMKCLKVGMLKEGVRLD [A42F], the abundance fitness is -0.209 ± 0.09.
